Test results from patent publication US20090068158A1, “THYMIDYLATE KINASE MUTANTS AND USES THEREOF” (priority 2005, published 2009).

Tests used:
[1] = Enzymatic activity of tmpk mutants for AZT-MP; assay type: biochemical, human
[2] = relative to wild-type tmpk; cited from earlier work

B1: F105Y+R200A: modified human tmpk combining mutations F105Y and R200A (protein, UniProt P23919 2-212, looked up, variant F105Y R200A)
Thymidylate kinase: AARRGALIVLEGVDRAGKSTQSRKLVEALCAAGHRAELLRFPERSTEIGKLLSSYLQKKSDVEDHSVHLLFSANRWEQVPLIKEKLSQGVTLVVDRYAFSGVAYTGAKENFSLDWCKQPDVGLPKPDLVLFLQLQLADAAKRGAFGHERYENGAFQERALRCFHQLMKDTTLNWKMVDASKSIEAVHEDIRVLSEDAIATATEKPLGELWK
In the case of B1, the “enzymatic activity / catalytic conversion compared to wild-type tmpk (in words)” value [1] is listed as “superior enzymatic activity” and the “enhanced activity for AZT-MP” value [2] is listed as “approximately 200 fold”.
